This passage reports Kd results from doi:10.1101/2021.11.12.467822.

In test [1] the target is fluorescently labeled K48-Ub4 (S20C on the most distal Ub, Alexa Fluor 488) (UniProt P0CG48). Kind of test: fluorescence polarisation. (In general: In fluorescence polarisation assays a small probe gives low polarisation when free and higher when bound to something large.)
The target of the next test is full-length (FL) UBQLN2 (UniProt Q9UHD9). Kind of test: NMR titration.

As usually defined, the Kd is the equilibrium constant for the complex coming apart. Read a high Kd as weaker binding. With “UBQLN2 450-624 (from UniProt Q9UHD9 450-624) (domain or fragment)”, the dissociation constant (Kd) in test [1] worked out at 2700 nM. Regarding “ubiquitin (Ub) (from UniProt P0CG48 1-76) (natural protein; other documents disagree on this pair)”, the equilibrium dissociation constant (Kd) in the test with full-length (FL) UBQLN2 worked out at 3000 nM.
